Experiment: label from the status in PepcDB records

| Sequence | protein production |
| --- | --- |
| MLEGQLEAGEPKEGTHPEDPCPGAGAAMEKTPAAAEVPREDSNAGEMPSLQQQITSLHQELGRQQSLWADIHRKLQSHMDALRKQNRELREELRGLQRQQWEAGKKPAASPHAGRESHTLALEPAFGKISPLSADEETTPKYAGRKSQSATLLGQRWSSNHLAPPKVTLRAYRL | failed |
| MLRGLRIIAENKIGVLRDLTTIIAEEGGNITFAQTFLIKHGEHEGKALIYFEIEGGDFEKILERVKTFDYIIEIEEEESFERVFGKRVIILGGGALVSQVAIGAISEADRHNLRGERISVDTMPVVGEEEIAEAVKAVSRLHRAEVLVLAGGIMGGKITEEVKKLRKSGIRVISLSMFGSVPDVADVVISDPVMAGTLAVMHISEKAKFDLDRVKGRRI | not failed |
| MQEELAWETDGLLPLERQLHEAARQNNVGRMQELIGRRVNTRARNHVGRVALHWAAGAGHEQAVRLLLEHEAAVDEEDAVGALTEARLCFGMNALLLSAWFGHLRILQILVNSGAKIHCESKDGLTLLHCAAQKGHVPVLAFIMEDLEDVALDHVDKLGRTAFHRAAEHGQLDALDFLVGSGCDHNVKDKEGNTALHLAAGRGHMAVLQRLVDIGLDLEEQNAEGLTALHSAAGGSHPDCVQLLLRAGSTVNALTQKNLSCLHYAALSGSEDVSRVLIHAGGCANVVDHQGASPLHLAVRHNFPALVRLLINSDSDVNAVDNRQQTPLHLAAEHAWQDIADMLLIAGVDLNLRDKQGKTALAVAVRSNHVSLVDMIIKADRFYRWEKDHPSDPSGKSLSFKQDHRQETQQLRSVLWRLASRYLQPREWKKLAYSWEFTEAHVDAIEQQWTGTRSYQEHGHRMLLIWLHGVATAGENPSKALFEGLVAIGRRDLAGWSTMARSQLTATSASRVQMILVPQPPE | failed |
| MDFRRAPELIGRLQEQAVVPREQGVQRLMRLALEYWLLPVLLLAAAVRFYDLTAAAIWGDEGSSLVLSQYSLSEIWFHAARDVHPPLYFMLLRGWIELFGDGIFSIRTFSALPGIVTVGLGMWLVALLATRRAAILAGVLLALLPTAVRYSQEVRMYALLGLLLLGATLALVYWLRQPSRPGYLVSYALLMTLAFYTHYFTAFCVLAHWLYLAVSGVRAEGGGRLVTRPAWWLANAAIVLLFLPWVPELLDLLRHMDELKANGDVGWEPVVTWSSLPAMVWQLLIQDEGDNLPGALFVGMPLLLLAVCSVLAWRDGAPARFGGLLASFTLLPLLLVFAVSFASPVFIERYLTAYALGLPMIMAVLIDRWLKTARLVALALLLGFVGLEAVGLKNNIDVDANDQISVMVDYVNRHYVAGDRIVISDMLWYLSYVYYNRTDAQPMLYTPPLPGGTSSRPNAYGFGTLIDHPDQVYLDQLSALSVGSGRYWLVGSDDQSEEFAPLPQGWHKVGQFAAGGTRARLFVLCGSAAGASCAGQ | failed |
| MPANKKEGLIFGVMMCFGMVCVMSIYNAIINRAIYDFSLMTVFEMVIGFMIALLLDLLLVGPLAKKIAFRMPFDKTKKIYVILAMSTCMVIGMVLCMSVFGLVTAVLANGLNGDSLFSAYLMIVLKNFILAYPLQLLIMGPLVRGVFMKFVKPKLTAAI | failed |
| GEKTFTQRSRLFVGNLPPDITEEEMRKLFEKYGKAGEVFIHKDKGFGFIRLETRTLAEIAKVELDNMPLRGKQLRVRFACHSASLT | not failed |
| MAISIRTMAALSMVGLRGKRDVQQYSEWISQPCRPAMKGFRPGIGPTLVVLLLLPVLVALGFWQLGRGEQKRQLLASYAERRAAEPVALFELLASEDPAFRRVRLHGHFDADHSLLLDNRLHDGKVGVELLQPFLDQASGRWLLVNRGWLPWPDRRTPPVFSTPQQSLSLDAWVYVSPGAAFQLHADPSGASWPRLITAVGPQALWAELGRSGFDHEVRLESGPGAYLTEWPVVAMGPEKHQAYAVQWFAMALALFALYLYFGWHNTREKRHGNGHESTQHL | failed |
| MEQEEPCEAKETASSSIEPKTPNPNVPDSIPAIDSDSSLSEEEIVTEKDRGIVTLSPLCKQRIDSASISDCVLVSDDEIIESLYQNLLRVILSLQQIQSVAVVPEIWCFDGCKTPPPSSRNLDSNMVSDTCPGAPMKLTKISRNIDSGLRRKLF | failed |
| NKSYRSTEQITNFAKALLPDGDQIQAFTRKGDLPKVMIRYGEDAALSSLRSEVEHQLKATNTVAVLTKDLAESKQVYQYLKRYTVTTLMADSDRTMPQGVIVMPIYLAKGLEFDAVVAYDVSATNYPDADSVGILYTIASRAMHHLTLLSIGDVSPLIAQLDPTLFTIEHQVRV | not failed |
| MRDIPLLIPILLILFVSLGLARVKTILVVGAFSLFFVYGYLKGENIGTPRRRIEVNDDVFSVMLILSVIIILIQIANLRGIPLLHPHLRTHLNPKLTGLTYFLGLPSSVYLIIRGKKLGFLYPLMVALYAYRTPVLVALIALTLPYLEDMKKGKKAVEIGVIGIFLLFLISYFRGSLSFLTRIQGTTSVLDVIVKRCSVVGFYKGELQLAGVKSYIFGGLGPRTMIARYLGIPGVTITATLIGGMYLDFGLLSSLEMLLLGFYYGIMKKLRSDVGRSFYYSTLSYGIVGVETGILDLPVYLMILVGLLIAWREFDGNLRKDIRRIISWISSSSNNW | failed |
| MAHSPLVSIVVPAHNAEATLARALDCLLDQEIVDWEAVIVDDASTDRTPAIIAGYVEHDARFRTLRSSTSSAAGARNSGISTARGHWLMFLDADDWVDASFLAKMLAALKAAPDAVAAYCGSRRVMPDGELTPSSISTEVAIQPFETFARQCAIRTHALLVDREAIVGLGGFDVSLRTCENWDLWQRLAHLGKRWVMVDEPLAFYRVSPNSLSRNSTQMLADAEIVIARGFSADPRVSHPASGQANGAISANGGTASEALAWFALWNAASDCGRGSRSIDPQALRALPAGRKWAREIAEVAIDGLMVGSLSVPAQLAARWGRFGGPLTELIIELGKVWDNPAAGRRVQYQLEQMLLDADDLAAPRRLARTLGIRVDVRNPNAIELPEGIDRIYAYLMMDGQIEAVVQFGVLGTVTRDHWIELIQNVVPAERLADSTARLAGRSTVPQEGAGADTSNTFAAEALLFTAERRSDPDSHFGKLAQLTAEARELVRSSAEPEQPPAVPRRARAADTNDRTAFWNSYFATEDPWNYGSLYEQEKYQRQLEILPAGPIGRVLELACAEGHFTRQLAPRVSHLTATDISAIAIERARARCGDQPNIEFGVLDFAADMLPGEMDLIVCSEVLYYLDDLADLRRITKKFTEALAPGGSFITAHAFVLRDNVERTGFDWNTFGAQAISETLAATEGLVLEQSIQTELYRIDRFRRLSPDDLVTEPMIDHAPIRAQIEIGVARNIIWGGARALRRDVARNEQRQRVPVLMYHSVSDDGPAALARFRLTPAGFGSQMAWLRANGFHAINSEQLEGCIANRQPFVGRPVLITFDDGFQNFADHAWPTLRANDLTAEVFLVTDLVGKGAQWDAHNGPPTQLMDAGTVRRLAGEGAFFGSHMATHRAIDGLSSSDLAAELLRSRMFIERWTGRPTTAFTAPFSVTDRRLGRLARECGYRIGFGARHGPADLDCDLIDLPRIEIRGDRSLDDFVATVEAVLKER | failed |
| METLSVIHTVANRLRELNPDMDIHISSTDAKVYIPTGQQVTVLIHYCGSVFAEPENTDATVQKQLIRISATVIVPQISDAINALDRLRRSLGGIELPDCDRPLWLESEKYIGDAANFCRYALDMTASTLFIAEQESKDSPLLTIVNYEEIQ | not failed |
| MADDKKKRNKKKKRSTGNKRKMTTEQSEAFKSITDWLILGSSPSLSSSSDDFAVNINSGSLRCGEKVVFELHSHSNRSDGFLSPSKVVERAYNNGVKVLSLTDHDTMAGVPEAVEAGRRFGIKIIPGIEISTLFGLRDSGSEEPVHILAYYGTSGPALYDELEDFLVKIRDGRFVRGREMVLKLNKLKIPLKWEHVTRIAGKDVAPGRMHVARALLEAGYVENLRQAFTKYLHDGGPAYATGTEPMAEEAVKLICKTGGVAVLAHPWALKNHVGIIRRLKDAGLHGVEVYRSDGKLEVFSELADTYNLLKLGGSDYHGKGGRNESELGSVNLPVTALQDFLNVGRPIWCEAIKATMRAFLDQPSDSNLSNILRFDKARILKGNSAWSCGKELMDRCLAIWLTSDERNSNDFEALRLKLSFVPIMSNGTCVTVGP | failed |
| MSLADISVIQSLPLSGSQAVTGRALNAGARLYFDWLNLNGGINGETIRLVARDDEQKIEQTVRNVRDMARVDNPVALLTVVGTANVEALMREGVLAEARLPLVGPATGASSMTTDPLVFPIKASYQQEIDKMITALVTIGVTRIGVLYQEDALGKEAITGVERTLKAHALAITAMASYPRNTANVGPAVDKLLAADVQAIFLGATAEPAAQFVRQYRARGGEAQLLGLSSIDPGILQKVAGLDAVRGYSLALVMPNPGKSVNPVIREFNRARAAVGAKDVDLSFRAVEGFVAAKVLAEAIRRAGPKPTREQVRHALTELRDYDVGGGFTVDFTDRSRPGSHYIELGVVGPNGLVIQEGHHHHHH | not failed |
| MDEVLLVKKLVEDAIVPTRGSKCAAGIDLYSNTNFIIQPHERFLVSTGVSVQIPHQCYGRIAPRSSLALKYGIDVGAGVIDEDYRGEIKVILFNHSNEIFNGRKGDRIAQLIIERISYCRISEVKELNTTDRGTNGFGSTGK | not failed |
| MDEKEKNLNENSENESTPKREVEDTLHTPESAQPVQETPIVEGVTPEGEKFAGATEDAAEASSTNAFFEEASNKESEPARPAPGPRRAGTTGGGAVPPNRVNNGGSGNGNGEPPKRGKHFIGYFLTALIGVIIGGLIIFFVAWDNGDNADTTSNSNNKATKVEKVSVDTTSDVTKAVDKVQDAVVSVLNYQSSSSLDGTTTSEQEASSGSGVIYKKANGKAYIVTNNHVVADANKLEVTFTNGKKSEAKLLGTDEWNDLAVLEIDDKNVTTVAAFGDSDSLKLGEPAIAIGSPLGTEFSGSVTQGIISGLNRAVPVDTNGDGTEDWEADVIQTDAAINPGNSGGALINIEGQVIGINSMKISMENVEGISFAIPSNTVEPIIEQLETKGEVERPSLGVSLRDVDTIPETQQKNILKLPDSVDYGAMVQQVVSGSAADKAGLKQYDVIVELNGQKVTNSMTLRKILYGNDVKIGDKVKVKYYRDGKEKSTDIKLEAAKTTT | failed |
| MQSYFSPLLDAMHAWLMLQLPGPVAGALLGGLHALVFIPLAALAWRVLSNESRRAQWVPLFALAGMCSAVFLSELGNTMGDTASAIPVLAALAVVLLAQFRARNGLHVVHLWAVAGALIGLAVALKLTNALYALALVPAVLCDGGRLRSRVLALSVLAGVALLVLLLVAGPWYWQVWQHLGNPLFPQFNGVFKSPLAQPVSIADVRWLPRTIGEQLIWPLLFTLKPQRIGDLGLVQAGWAVLYGVVAIAAGRALVRRPVRAAAVDRAAIVLLVFFGVAYALWQAIFSIHRYLVVLELLAPLVLWIVCRHAFAARANRKAAWLIGACALVAVVGWKDWGHESWARESFQVEQPVLGNPAASSVLLVGDEPQSWRVPLLPSQARYIGVATNISETDHYRQRVRALIAERPQLYAMLGAARDKQQVRIDRMNRLAQQFGWERQPGCSRLRWLVARGLRAELDTSQPDRCVLAIPKGKALDIAAADQAVREAAQQRLAAYGLTLDPARCRTLSSQVGQAVYPYQFCQLALPN | failed |
| MAKIVQLPDDLSNKIAAGEVVERPASVVKELVENAIDANSSVIEIDVEEAGLASIKVLDDGEGMDAEDCRTAFLRHATSKIKDENDLFRVRTLGFRGEALPSIASVSHLSIKTSTGEGAGTHLTLQGGRIISEQKAPSRRGTEITVTNLFFNTPARLKYMKTIHTELGNITDVVNRIALAHPEVSIRLRHQGKTLLQTNGNGDVRHVLAAIYGTAVAKKMLPLEARSLDFEVKGYIALPEITRASRNYMSSVVNGRYIKNFPLVKAIHEGYHTLLPIGRHPITFIEINMDPLLVDVNVHPSKLEVRLSKETELHELIRDAIKDVFKQQQLIPSVQVPKKTAPLINKPEQQKLDFDQVREPAPLSDSDVEREYKPEPSFSAMKLSSLVKDPPPSAPVEREENVMQDTEPEWPGAEEYTPEAAPAVQAEPEQAGENVQDEETPKERVPIMYPIGQMHGTYILAQNENGLYIIDQHAAQERIKYEYFREKVGEVESEVQDLLVPLTFHYSKNEALTIDQHLDDLAKVGVFLESFGAGSYIVRCHPTWFPKGEETTIIEDIIQQVLDDRTIDIKKLREEAAIMMSCKGSIKANHHLRDDEITALLDELRRTSDPFTCPHGRPIIIHYSTYEMEKMFKRVM | failed |

Source: a protein production outcome set (Wang et al. 2014)
